Assay results: patent US20050096268A1
Values belong to the substance of their own block, whether it stands above or below them.

Legend:
human IL-13 (human) [1] = molecular target: human IL-13 (human) (UniProt P35225); assay: Biacore SPR; IL-11R-Ig immobilized, 100 ng/ml human IL-13 injected
human IL-13 (human) [2] = molecular target: human IL-13 (human) (UniProt P35225); assay: Biacore SPR; human IgG1 immobilized, 100 ng/ml human IL-13 injected
murine IL-13 (murine) = murine IL-13 (murine) (UniProt P20109); assay: cell-based or functional assay
Chain of UniProt P20109 (P20109 21-131 limits assumed): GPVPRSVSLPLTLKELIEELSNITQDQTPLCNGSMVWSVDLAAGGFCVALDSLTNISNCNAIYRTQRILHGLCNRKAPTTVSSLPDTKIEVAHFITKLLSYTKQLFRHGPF

Chain of UniProt P35225 (P35225 35-146 limits assumed): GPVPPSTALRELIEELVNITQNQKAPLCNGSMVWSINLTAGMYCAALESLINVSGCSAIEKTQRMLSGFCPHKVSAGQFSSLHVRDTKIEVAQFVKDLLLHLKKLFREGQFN

RU bound (human IL-13 (human) [1]): 3.7 RU
Substance: IL-11R-Ig (Fc fusion)

RU bound (human IL-13 (human) [2]): 5.4 RU
Substance: human IgG1 (IgG control) (antibody)

in vitro ID50 in the B9 proliferation assay (murine IL-13 (murine)): 10 ng/mL
Substance: soluble IL-13 receptor α2-Fc fusion protein (sIL-13Rα2-Fc) (from UniProt O88786 22-331)
